The DeepSol protein solubility set

assay: soluble on expression in E. coli; label from the status in PepcDB or PDB records

Row | Sequence | soluble on expression in E. coli
1 | MSLQVVIKFGGTSVSTRATWNNIAAITQKHLNTGVQPVIVCSALTQISNKLEKAIEAALLDEHHSLFNDIQSSHLNLAEQLEVNHQLIANDLHQLQQWLTGISLLKQAPAKTHAQILSLGELMMTRMGHAFLERHEIKVKWYDARELLTSTPTLGGETMNYLSARCESEYDPGLVEKFLSSGAQAIITQGFFAANPHGETVLLGRGGSDTSAALLAGKLQAASCEIWTDVPGIYTANPHQLPHARLLKQLNYDEAQEIASMGAKVLHPNCIPPVRKANIPMVVKYTHLPEHSGTLITKDIDESAPLIKSIQVKHSILLISIDTLNMWQQVGFLADVFAAFKKHGFSVDLLSSSEFNVTLSLDVNAKIHDRPAINALLDDLNQFGRAKLIEPCSAVSLVGHHIRTVLPHLGPALEVFEAKQVYLMSLASNDLNLTFVVDESHADKLCQRLHHLLIESNPQIFYYSKSWHEEFGKPNVRPTPWWEIERDRLLTTSAIHSPCYVYHSPTQAIRARQLSALESIDSLFYAVKANPFPSILKTLEKEGIGFECVSIQELELVLKLFPNIKKERILFTPNFAPKSEYEFALQTGCYVTIDSLYPLENWPELFKNREVIVRIDPGTGAGHHKHVSTGGNESKFGITQNDISKILSLTKSNHIKVIGLHAHSGSGILSTDLWQQTAVMLASLTDQFPEVRSINLGGGLGIVEKPGQHPIDFAALDAQLMAVKSQYPGLAIWLEPGRFFVAESGVILAKVTQCKEKGKVKFIGIETGMNSLIRPSLYGAYHEIVNLTRLHEEKAGFAHIVGPICESGDTLGYDRLLPVTKEGDVILIANTGAYGHCMSSHYNLRPPAQEIVLEEGHHHHHH | soluble
2 | MSLRAAARELSVGHTPTIGLVVADLANPFFAQLADRVVWEARSHGVQVMVMTTQEDPHLEADSLDTLLDRSVGGVIATPTGANIEKWARLQSLGVNVVFVDRTIPELEDVDLVSIENVDSARRATEHMLGLGHRRIGLITGPVSTSTGRSRIEGYKAAHNNFSISVDPQLIRDVAFRGDGGGDAVGSLLALPDRPTALIVANTAQVLSSVRRLVQIGVRIPDDLSVIVFDDNPWTELTNPPLSVIRQPIDMLAVHSLELVLGRMQGRLPAAPRTIEVKADFVPRSSCSPLALSEGHHHHHH | soluble
3 | MSLRAGTEETERGHTALTVEGIGRRRGSEERETPERGDKEEGKEQVKRETAGGTRSSSPQKQRGKSTTRRLSVAGLSSERTQSNFEIHRELEDQTDDAMSGAGGIDCSMSGTTATVVLHIHALKKLFVAHVGDSRAVIARREHASSRAVAGGSDGFRQETRNDSRMLQQQTSSEPRETAEDRGCRSAGTGTDCRPLSRLMAFDLTNDHKPTNEIEKQRIMKAGGQVRRLEGDVPHRVFLKNRLFPGLAMSRAIGDTIATQAGVIPDPEVRGYQQSQSDEGHHHHHH | soluble
4 | MSLRAQGEVVLSIDGEPVKRSEFEYYFRKSSHRTPLSFLPSFINYKLKVRYAHDMGIDTLSVFRRQVDWYRGKLLRTYLADAEKEEQAARRLYLQGEQRLQANDWIKIAHISKYLSQNASRQEEMRVRQQMDSVYEALREGADFATLARRYSDDEACKNVGGVLPWMPVNKNMQEWIDKLESLERNKISAPFYSPMGIHIVKWIDRRQGVSFEEKREQLLNYLEKNGNCTWKELSAEQKEELEFRVQELQDGLLAAYLSQKYQSGDEAWNEDDLERFFKQHKSDYAWELPHYRGAVIHCKDRKTASAIKKQLKKKPVSQWKDILHTLTGDDASSKVRMEAGVFQIGTNRYIDKLVFKCGSFQPEPDLPYTFVMGKKLKKGPESYEDVREAVVKDYLTVYEDAWLKDLKRKYKVEINQEVLKTVNNNGSEGHHHHHH | not soluble
5 | MSLRASTVKQHAFGLLIPELGQTEIFEPICQGMVAAQEAHNHVLIWGRSLAGSETTEADAKDVCARLISNRVSGVFFAPIEANPQKDAINRIISTMLSDAKIPIVLLDRDIVDYPQRSKFDVVGIDNRRAGCVATQHLIDAGCRRIGFIGRPHLAPSCVARCNGYRETVSNSSIPLAPTFAERLDPSDPILVGKVMDRHKPDGIVCSNDRTAALLMRTFATLKIAVPDQVRLVAFDDVKYASLVTVPLTTIHQPCDQLGAAAIQAMVQRIESPDMPPRDILVDFHLVVRESCGARMAREGHHHHHH | soluble
6 | MSLRDIAIGASLELSGPTQSIGTAYKKALELQVDSINEQGGVLGGRKLRLVVKDNQTKPAQNITNVNDLINNDHVVAVITGGCSACTVPVTSIVEKRKVPLISLASATAITDPVAERQYTFKISPNPAQDAEVLLADLKKKGVKSVGLLNVDNPYGQEGRAAVLAQAKKAGIEVTGTQQFGQEDKDMSVQAKRLVDDRPEAVVVWAVMPAAGIIAKNLRDAEFDGGVYLDAGAGAELFVKGAQGAAEGVHMVFPRVLAIGDVTSGGDSVRKQKQWVARYTDRYQDYSGFASFAADAALMLRDAIAKSGSTDGAELRDTIETIGFDGVSGPIRNSAKEHSGLQPESLGVLVVRDGDWHLANEGHHHHHH | soluble
